The values that follow come from US20220411492A1 (QILU PHARMACEUTICAL, published 2022).

Positions count from the first letter of the chain named. In names and notes the source's numbering stands.

B1: ch-299B2 (antibody, V domains shown)
VH: QVQLKQSGPELVRPGASVKLSCKTSGYIFTNYWIHWVKQRSGQGLEWVVRIYPGTGNTYYNEKFTGKATLTADKSSSTAYMQLSSLKYEDSAVYFCSREGYGKGNSMDYWGQGTSVTVSS
VL: DIVMTQSPSSLTVTAGEKVTMNCKSSQSLLNSGNQKNYLTWYQQKPGQPPKLLFYWASTRESGVPDRFTGSGSGTDFTLTISSVQAEDLAVYHCQNAYYYPYTFGGGTKLEMK
notes: also called chimeric antibody of clone 299B2
B2: ch-251H11 (antibody, V domains shown)
VH: QVQLKQSGAELVRPGASVKLSCKTSGYTFTTFWIHWIKQRSGQGLEWIAKIYPGTGYTYYNEKFKGKATLTADKSSSAAYMQLSSLKSEDSAVYFCAREGYGKGNAVDFWGQGSSVTVSS
VL: B1 VL with N22S, L30F, F54I, S82D, H93Y, A97D, Y99T, Y102S, K109N, M112I
notes: also called chimeric antibody of clone 251H11
B3: ch-287F12 (antibody, V domains shown)
VH: QIQLVQSGPELKRPGETVRISCKASGFTFTTAGMHWVQKMAGKGLKWLGWTNTHSGEPKYAEDFKGRFAFSLDTSGSDAYLQIGNLKYEDAATYFCAKWGRGNALDYWGQGTSVTVSS
VL: B1 VL with N22T, F54I, S82N, S83T, H93Y, A97T, Y99S, Y102L, M112L, K113R
notes: also called chimeric antibody of clone 287F12
B4: ch-241F7 (antibody, V domains shown)
VH: EVQLQQSGPELEKPGASVKISCKASGYSFTAYNMNWVRQRNGKSLEWIGNIDPYYGGTNYNQKFKGKATLTVDKSSSTAYMQLKSLTSEDSAVYFCATVYYGNSLIYWGQGTLVTVSA
VL: B1 VL with N22S, F54I, S71T, H93Y, A97N, Y99F, Y102L, G106A, K109Q, M112L
notes: also called chimeric antibody of clone 241F7
B5: ch-59F9 (antibody, V domains shown)
VH: QVQLQQSGAELMKPGASVKLPCKASGYTLTGYWIEWLKQRPRHGLEWIGEILLGSGSIKYNVKFKDKATFTADTSSNTAYMQLNSLTTEDSAIYYCARKGLRGNSFDYWGQGTTLTVSS
VL: B1 VL with N22S, N37S, L52R, F54I, H93Y, A97D, Y102F, G106S, M112I
notes: also called chimeric antibody of clone 59F9
B6: hu299B2-S32A-1 (antibody, V domains shown)
VH: QVQLVQSGAEVKKPGASVKVSCKASGYIFTNYWIHWVRQAPGQGLEWMGRIYPGTGNTYYNEKFTGRVTMTRDTSTSTVYMELSSLRSEDTAVYYCAREGYGKGNSMDYWGQGTTVTVSS
VL: DIVMTQSPDSLAVSLGERATINCKSSQSLLNAGNQKNYLTWYQQKPGQPPKLLIYWASTRESGVPDRFSGSGSGTDFTLTISSLQAEDVAVYYCQNAYYYPYTFGGGTKLEIK
notes: also called humanized antibody hu299B2-S32A
B7: hu299B2-S32A-2 (antibody, V domains shown)
VH: B6 VH
VL: B6 VL with I21M, I54F, Y93H
notes: as for B6
B8: ch-253C4 (antibody, V domains shown)
VH: QVQLKQSGAELVRPGASVSLSCKTSGYIFTSYWIHWVKQRSGQGLEWIGRFYPGTGTAYYNENFEGKATLTADRSSSTAYMQLSSLKSDDSAVYFCTREGYGKGNAMDYWGQGTSVTVSS
VL: DIVMTQSPSSLTVTTGEKVTLSCKSSQSLLNSGNQKNYLTWYQQKSGQPPELLIYWASTRESGVPDRFTGSGSGTDFTLTVSSVQAEDLAVYYCQNDYYFPFTFGGGTKLEIK
notes: also called chimeric antibody of clone 253C4
B9: ch-299B2-G33A (antibody, V domains shown)
VH: B1 VH
VL: B1 VL with G33A
notes: also called chimeric antibody of 299B2-G33A
B10: ch-299B2-N31Q (antibody, V domains shown)
VH: B1 VH
VL: B1 VL with N31Q
notes: Light chain variable region mutant N31Q of 299B2; also called ch-299B2-X31Q; chimeric antibody of 299B2-N31Q
B11: ch-299B2-S32A (antibody, V domains shown)
VH: B1 VH
VL: B1 VL with S32A
notes: also called chimeric antibody of 299B2-S32A
B12: ch-253C4-G33A (antibody, V domains shown)
VH: B8 VH
VL: B8 VL with G33A
notes: also called chimeric antibody of 253C4-G33A
B13: ch-253C4-N31Q (antibody, V domains shown)
VH: B8 VH
VL: B8 VL with N31Q
notes: also called chimeric antibody of 253C4-N31Q
B14: ch-253C4-S32A (antibody, V domains shown)
VH: B8 VH
VL: B8 VL with S32A
notes: also called chimeric antibody of 253C4-S32A

The target of one assay is murine CLDN18.2 (mCLDN18.2) (murine) (UniProt P56857). The experiment in a line: FACS, HEK293-mCLDN18.2 cells.
In general, EC50 refers to the concentration giving half of the maximal effect. A lower EC50 goes with an effect from little substance. In the case of B1, the EC50 turned out to be 0.758 nM and the Mean maximum fluorescence intensity (Top MFI) was 13600 MFI.

Consider B2, for which the EC50 amounted to 1.01 nM and the Mean maximum fluorescence intensity (Top MFI) worked out at 8590 MFI.

Turning to B3, the EC50 amounted to 1.14 nM and the Mean maximum fluorescence intensity (Top MFI) is 10200 MFI.

In turn, B4 came in with a half-maximal effective concentration (EC50) of 1.16 nM and a Mean maximum fluorescence intensity (Top MFI) of 10500 MFI.

With B5, the EC50 was 1.22 nM and the Mean maximum fluorescence intensity (Top MFI) came to 11200 MFI.

On to B6, for which the EC50 stood at 0.201 µg/mL and the Mean maximum fluorescence intensity (Top MFI) was determined as 88800 MFI.

B7: the EC50 came to 0.111 µg/mL and the Mean maximum fluorescence intensity (Top MFI) amounted to 90400 MFI.

Consider B8, for which the EC50 was 0.79 nM and the Mean maximum fluorescence intensity (Top MFI) is 8330 MFI.

The target in the next assay is T1, human Claudin 18.2 (hCLDN18.2) (human, UniProt P56856-2 1-261). The experiment in a line: cell-based or functional assay.
For the molecule B1, the “ADCC EC50” value amounted to 0.047 µg/mL and the “ADCC Maximum lysis (%)” value came to 33.5%.

B2: the “ADCC EC50” value was 0.024 µg/mL and the “ADCC Maximum lysis (%)” value was 38.8%.

As for B3, the “ADCC EC50” value turned out to be 0.017 µg/mL and the “ADCC Maximum lysis (%)” value amounted to 35.5%.

On to B4, for which the “ADCC EC50” value came to 0.027 µg/mL and the “ADCC Maximum lysis (%)” value came out at 36.6%.

In the case of B5, the “ADCC EC50” value came out at 0.023 µg/mL and the “ADCC Maximum lysis (%)” value was found to be 29.4%.

For the molecule B8, the “ADCC EC50” value came to 0.036 µg/mL and the “ADCC Maximum lysis (%)” value turned out to be 35.7%.

The next assay has as its target T1, human Claudin 18.2 (hCLDN18.2). The experiment in a line: cell-based or functional assay. The source holds these as a separate data set.
B1: the “CDC EC50” value stood at 0.124 µg/mL and the “CDC Maximum lysis (%)” value amounted to 95.5%.

In the case of B2, the “CDC EC50” value came out at 0.359 µg/mL and the “CDC Maximum lysis (%)” value worked out at 97.1%.

With B3, the “CDC EC50” value worked out at 0.141 µg/mL and the “CDC Maximum lysis (%)” value amounted to 96.3%.

With B4, the “CDC EC50” value amounted to 0.099 µg/mL and the “CDC Maximum lysis (%)” value came to 95%.

Consider B5, for which the “CDC EC50” value stood at 0.091 µg/mL and the “CDC Maximum lysis (%)” value turned out to be 94.7%.

Turning to B8, the “CDC EC50” value is 0.038 µg/mL and the “CDC Maximum lysis (%)” value is 95.2%.

A further assay shares this target. The experiment in a line: cell-based or functional assay. The source holds these as a separate data set.
As to B6, the “ADCC EC50” value turned out to be 0.022 µg/mL and the “ADCC Maximum lysis (%)” value worked out at 57.9%.

As for B7, the “ADCC EC50” value was determined as 0.028 µg/mL and the “ADCC Maximum lysis (%)” value stood at 68.1%.

A further assay has the same target. The experiment in a line: cell-based or functional assay. This is another data set of the same source.
In the case of B6, the “CDC EC50” value is 0.125 µg/mL and the “CDC Maximum lysis (%)” value came out at 99.2%.

B7: the “CDC EC50” value worked out at 0.129 µg/mL and the “CDC Maximum lysis (%)” value turned out to be 99.7%.

Another assay shares this target. The assay can be described thus: FACS, HEK293-hCLDN18.2 cells. An excerpt: (§1) FACS was used to detect the binding of anti-CLDN18.2 chimeric antibodies to HEK293 cells stably transfected expressing hCLDN18.2 (HEK293-hCLDN18.2) and gastric cancer tumor tissue-derived cells naturally expressing hCLDN18.2 (PDX-hCLDN18.2).
Turning to B1, a half-maximal effect (EC50) was put at 1.52 nM and the “Mean maximum fluorescence intensity (Top MFI)” value was 10100 MFI.

On to B2, for which the EC50 was determined as 2.72 nM and the “Mean maximum fluorescence intensity (Top MFI)” value came out at 10800 MFI.

B3: the midpoint of the response, the EC50, lay at 2.65 nM and the “Mean maximum fluorescence intensity (Top MFI)” value was 10900 MFI.

For B4, the concentration giving a half-maximal response (EC50) worked out at 3.02 nM and the “Mean maximum fluorescence intensity (Top MFI)” value worked out at 12200 MFI.

For B5, the EC50 came out at 2.41 nM and the “Mean maximum fluorescence intensity (Top MFI)” value was found to be 9040 MFI.

B8: the EC50 turned out to be 2.27 nM and the “Mean maximum fluorescence intensity (Top MFI)” value was found to be 10300 MFI.

Another assay shares this target. The assay can be described thus: FACS, HEK293-hCLDN18.2 cells. The source holds these as a separate data set. Here is the method: Following transient expression in mammalian cell lines, affinity assays were performed using HEK293-hCLDN18.2 cells and monoclonal cell supernatants were screened by FACS.
On the technique in general: In flow cytometry, cells or beads pass a laser one at a time.
As to B9, a half-maximal response (EC50) required 0.157 µg/mL and the “Mean maximum fluorescence intensity (Top MFI)” value was determined as 6870 MFI.

For B10, the binding result is reported as “binds”.

B11: the EC50 was found to be 1.31 µg/mL and the “Mean maximum fluorescence intensity (Top MFI)” value was 6500 MFI.

B12: the EC50 stood at 0.187 µg/mL and the “Mean maximum fluorescence intensity (Top MFI)” value was 6840 MFI.

For B13, the EC50 came to 0.175 µg/mL and the “Mean maximum fluorescence intensity (Top MFI)” value is 6560 MFI.

On to B14, for which the EC50 was determined as 0.207 µg/mL and the “Mean maximum fluorescence intensity (Top MFI)” value amounted to 6890 MFI.

A further assay has the same target. The experiment in a line: FACS, HEK293-hCLDN18.2 cells. The source holds these as a separate data set. Here is the method: (§2) Using flow cytometry measurement, the mean fluorescence intensity (hereinafter referred to as MFI) for each concentration was calculated by the software, and then the half binding concentration (EC₅₀) and the mean maximum fluorescence intensity (Top MFI) were calculated by GraphPad software, and the results were shown in Table 11.
In the case of B6, the EC50 stood at 0.407 nM and the “Mean maximum fluorescence intensity (Top MFI)” value amounted to 29500 MFI.

B7: the EC50 worked out at 0.463 nM and the “Mean maximum fluorescence intensity (Top MFI)” value came out at 36700 MFI.

Another assay has the same target. The experiment in a line: FACS, PDX-hCLDN18.2 gastric cancer tumor tissue-derived cells.
Excerpt: as §1
With B1, the EC50 turned out to be 5.81 nM and the “Mean maximum fluorescence intensity (Top MFI)” value is 16300 MFI.

Regarding B2, the EC50 stood at 96.2 nM and the “Mean maximum fluorescence intensity (Top MFI)” value amounted to 19900 MFI.

Turning to B3, the EC50 was determined as 16.8 nM and the “Mean maximum fluorescence intensity (Top MFI)” value amounted to 17600 MFI.

Regarding B4, the EC50 turned out to be 4.87 nM and the “Mean maximum fluorescence intensity (Top MFI)” value was determined as 15200 MFI.

With B5, the concentration for a half-maximal effect (EC50) amounted to 12.4 nM and the “Mean maximum fluorescence intensity (Top MFI)” value amounted to 18100 MFI.

As to B8, the EC50 was determined as 9.73 nM and the “Mean maximum fluorescence intensity (Top MFI)” value was determined as 15500 MFI.

A further assay has the same target. The description is as above. The source holds these as a separate data set. Here is the method: as §2
Regarding B6, the EC50 was determined as 29.7 nM and the “Mean maximum fluorescence intensity (Top MFI)” value amounted to 25200 MFI.

On to B7, for which the EC50 was found to be 24.6 nM and the “Mean maximum fluorescence intensity (Top MFI)” value amounted to 22900 MFI.
